Biological target: the molecule itself
Test: crystal structure

B1: ClpP from Bacillus subtilis (BsClpP) (enzyme)
chain: not shown
stoichiometry N: 14
